Data reported in US8410045B2, “Camptothecin-peptide conjugates and pharmaceutical compositions containing the same” (Drais Pharmaceuticals, Inc., priority 2006, dated 2013).
Where two headings read alike, the source gives them in different places.

How the values were obtained:
[1] = Stability of conjugates in citrated plasma at 37° C. (half life time, HPLC fluorescence); type: in vitro ADME; settings: dog
In short: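 Conjugates at 2.55 μM incubated at 37° C in citrated plasma of several species, including human and dog. After TFA/acid extraction, released free camptothecin derivative (e.g. SN38) measured by reversed-phase C18 HPLC with fluorescence detection; half-life taken as time to 50 mol% release.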

[2] = as above; type: in vitro ADME; settings: DPV1047-linker-SN38, 2.55 μM
Protocol: The stability of the conjugates was tested in citrated plasma (10% (v/v) sodium citrate buffer, 0.106M) from different species (see Table 1 below). The conjugates at 2.55 μM were incubated at 37° C. in plasma. Samples were analysed using the HPLC fluorescence method described below (see chromatographic equipment and conditions) following TFA/acetonitrile extraction and the amount of free camptothecin, analogs or derivatives thereof (e.g. SN38) released by the conjugates was measured.
Chromatographic equipment and conditions: 150 μL of each sample were placed in 1.5 mL micro-centrifuge tubes. 450 μL of 5% (v/v) TFA in H2O was added to each tube and the mixture was vortexed for 5 seconds. Samples were then centrifuged at 16000 g, 3 minutes at +4° C. 100 μL of supernatant were placed in 1.5 mL micro-centrifuge tubes. Methanol (100 μL) was then immediately added and vortexed for 5 seconds. Samples were then centrifuged at 16000 g, 3 minutes at room temperature. 150 μL of supernatant were recovered for HPLC analysis. Conjugates, metabolites and camptothecin derivative (i.e. SN38) were separated by high-performance liquid chromatography (HPLC; Agilent 1100 series equipped with a fluorescence detector) using a 4.6×100 mm ([…] particle size) Luna C18(2) column (Phenomenex ref. 00D-4251-E0, Le Pecq, France). The aqueous component of the mobile phase (A) was 0.1% (v/v) TFA in water. The organic modifier (B) was acetonitrile containing 0.1% (v/v) TFA. For the conjugate and its metabolites an elution gradient increasing linearly the proportion of B from 15 to 37% in 2 min, from 37 to 47% in 6 min, followed by 2 min at 90% was applied with a constant flow rate of 1.2 mL/min. The proportion of B was then returned to the initial condition for 3.0 min.
The half life time of conjugate corresponds to the time necessary to have 50% by mole of free camptothecin, analogs or derivatives thereof released by the conjugates of the invention. In human plasma, the half life time of conjugate DPV1047-linker #1-SN38 (less than 5 mins) was shorter than that of conjugate DPV1047-linker #2-SN38 (6-7 mins), which, in turn, was shorter than that of conjugate DPV1047-linker #3-SN38 (12 mins).

[3] = system: HT-29 colorectal carcinoma; assay: Antitumor efficacy in HT-29 colorectal carcinoma model in nude mice; type: in vivo; settings: Table 7
[4] = Pharmacokinetic study in the dog (blood, HPLC fluorescence); type: in vivo
Protocol: Peripheral blood samples were taken at different times following infusion for pharmacokinetic analysis.
Blood samples (2.5 mL) were collected in 5 mL in trisodium citrate tubes (Sarstedt S-Monovette® 9NC) containing 2.5 mL of 5% TFA (v/v) and vortexed for 5 seconds before storage at −80° C. (for less than two weeks).
Samples were then analyzed after a TFA and acetonitrile extraction by an HPLC fluorescence method, described below. […] Whole blood samples were acidified with TFA to protect the ester link of the conjugate against hydrolysis and allow protein precipitation to improve conjugate and SN38 recovery.
Five hundred microliters of each sample were then placed in 1.5 mL micro-centrifuge tubes to and centrifuged at 16000×g 3 min at +4° C. […] Methanol (100 μL) was then immediately added and the mixture stirred vigorously (vortex) for 5 seconds. Samples were then centrifuged at 16000×g, 3 min at room temperature.
One hundred and fifty microliters of the supernatant was recovered for HPLC analysis.
DPV1047-BCH-SN38 and its metabolite SN38 were separated by high-performance liquid chromatography (HPLC Agilent 1100 with a fluorescence detector) using the following method: […]

[5] = system: NCI-H460 human epithelial lung carcinoma cells; assay: In vitro cytotoxicity (WST-1 cell viability); type: cell-based; settings: 24 h
HT-29 tumors = assay: Combination of DPV1047-BCH-SN38 with 5-FU or bevacizumab in the HT-29 tumor model; settings: i.v.
Protocol: Mice were implanted with HT-29 tumors and treated by intraperitoneal administration (bevacizumab) or bolus intravenous injection (5-FU or DPV1047-BCH-SN38) at 10 μL/g. […] The T/C ratio was calculated following treatment with either bevacizumab, 5-FU or DPV1047-BCH-SN38. These T/C ratios were used to evaluate the expected T/C for combined treatment with bevacizumab and DPV1047-BCH-SN38, or 5-FU and DPV1047-BCH-SN38 (T/C of DPV1047-BCH-SN38×T/C of bevacizumab or 5-FU). […] The combination index of the two molecules was calculated by dividing the expected T/C by the observed T/C.

## CCc1c2c(nc3ccc(OC(=O)[C@H]4CC[C@H](CNC(=O)C5CCC(CN6C(=O)CC(SC[C@H](N)C(=O)N[C@H](C(=O)N[C@@H](CCCCN)C(=O)N[C@@H](CCCNC(=N)N)C(=O)NCC(=O)N[C@@H](CC(C)C)C(=O)N[C@@H](CCCCN)C(=O)N[C@@H](CC(C)C)C(=O)N[C@@H](CCCNC(=N)N)C(=O)N[C@@H](Cc7c[nH]cn7)C(=O)N[C@H](C(=O)N[C@@H](CCCNC(=N)N)C(=O)N7CCC[C@H]7C(=O)N[C@@H](CCCNC(=N)N)C(=O)N[C@H](C(=O)N[C@H](C(=O)N[C@@H](CCCNC(=N)N)C(=O)N[C@@H](CCSC)C(=O)N[C@@H](CC(=O)O)C(=O)N[C@H](C(=O)O)C(C)C)[C@@H](C)O)C(C)C)C(C)C)C(C)C)C6=O)CC5)CC4)cc13)-c1cc3c(c(=O)n1C2)COC(=O)[C@]3(O)CC (single isomer, unassigned) [DPV1047-BCH-SN38]
[1]; DPV1047-linker-SN38, 2.55 μM, citrated plasma, read-out: Half life time, Dog plasma
  half-life: 4.5 h
[1]; Table 10, SN38 conjugates, read-out: Dog Plasma Half life time
  half-life: 4.33 h
[1]; Table 12, CPP-linker #5-SN38 conjugates incl. D conformation, read-out: Dog Plasma Half life time
  half-life: 4 h
[2]; time to 50% by mole free SN38 released, read-out: Half life time, Mouse plasma
  half-life: < 0.05 h
[2]; monkey
  half-life: 4.83 h
[2]; rat
  half-life: 0.233 h
[3]; i.v. Q4D × 3, 12.5 μmol/kg
  Optimal T/C %: 66.8%
  TGI %: 33.2%
[3]; i.v. Q4D × 3, 25 μmol/kg
  Optimal T/C %: 39.2%
  TGI %: 60.8%
[4]; dog blood (FIG. 2)
  circulating half life time in the blood compared to DPV1047-MIC-SN38: longer
[4]; dog blood, equimolar dose (FIG. 1)
  AUC of SN38 compared to DPV1047-MIC-SN38: significantly greater
[4]; dog blood, non-toxic doses (DPV1047-BCH-SN38 ≦20 mg/kg, DPV1047-MIC-SN38 ≦50 mg/kg)
  SN38 Cmax and AUC versus dose of the conjugate: increased linearly with the dose
[5]
  IC50: 40 nM
HT-29 tumors; 12.5 μmol/kg, 5-FU combination experiment
  Single treatment DPV1047-BCH-SN38 T/C %: 68%
HT-29 tumors; 12.5 μmol/kg, bevacizumab combination experiment
  Single treatment DPV1047-BCH-SN38 T/C %: 77%
HT-29 tumors; 25 μmol/kg, 5-FU combination experiment
  Single treatment DPV1047-BCH-SN38 T/C %: 50%
HT-29 tumors; 25 μmol/kg, bevacizumab combination experiment
  Single treatment DPV1047-BCH-SN38 T/C %: 69%
